From US20080108128A1, “Resonance Energy Transfer Assay System for Multi-Component Detection” (priority 2003, published 2008)

Molecular target: T1, CCR2 (Homo sapiens, UniProt P41597)
T1 construct: expressed in transfected cells; host or cells: Cos-7
Assay: multiplex BRET assay of ligand induced CCR2:beta-arrestin-2 interaction in live Cos-7 cells
Assay type: cell-based
Conditions: Cos-7 cells co-expressing Rluc-Barr2, TRHR and CCR2 fusions (EYFP / t-dimer2(12)); MCP1 0.1 μM, 37° C. 10 min; coelenterazine h 5 μM
Source text: A construct for the expression of bovine beta-arrestin-2, N-terminally fused to Rluc (Rluc-Barr2) was constructed by amplification of the bovine beta-arrestin-2 coding sequence by PCR using the Barr2-fw and Barr2-re primers (template: construct containing bovine beta-arrestin2 in pcDNA3 (Invitrogen)). The 5′ and 3′ primers used contained EcoRV and NotI restriction enzyme sites, respectively. A second PCR product, containing the coding sequence for Rluc, was generated by amplifying the Rluc cDNA sequence with the primers Rluc-fw and Rluc-re using the plasmid pRL-CMV (Promega) as a template. This second PCR product contained HindIII and EcoRV restriction site at the 5′ and 3′ ends, respectively. Both PCR products were then cloned together into the HindIII/NotI sites of pcDNA3 (Invitrogen). […]
Ligands or combinations of ligands were added to the samples to a final concentration of 1 μM for TRH and 0.1 μM for MCP1, the natural ligands for the TRHR and CCR2 receptors, respectively. […] A Varian Eclipse fluorescence spectrometer (Varian) was used to record luminescence spectra in the range between 400-700 nm after coelenterazine h (Molecular Probes) was added to the samples to a final concentration of 5 μM.
The spectra were further analysed by integrating the peak areas of the EYFP and t-dimer2(12) emission peaks as described in Example 2. […]

T1 sequence (P41597 1-360 isoform P41597-2): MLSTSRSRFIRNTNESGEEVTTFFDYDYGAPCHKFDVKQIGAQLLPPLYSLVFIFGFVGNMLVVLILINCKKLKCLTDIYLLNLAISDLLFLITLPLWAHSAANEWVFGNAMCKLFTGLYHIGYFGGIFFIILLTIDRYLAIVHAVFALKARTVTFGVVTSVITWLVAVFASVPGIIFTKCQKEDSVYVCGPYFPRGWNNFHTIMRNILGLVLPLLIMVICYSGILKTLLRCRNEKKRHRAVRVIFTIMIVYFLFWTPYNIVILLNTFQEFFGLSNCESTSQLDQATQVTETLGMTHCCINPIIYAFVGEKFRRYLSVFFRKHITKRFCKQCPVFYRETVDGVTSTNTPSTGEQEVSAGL
T1 sequence (P32120 whole entry partner): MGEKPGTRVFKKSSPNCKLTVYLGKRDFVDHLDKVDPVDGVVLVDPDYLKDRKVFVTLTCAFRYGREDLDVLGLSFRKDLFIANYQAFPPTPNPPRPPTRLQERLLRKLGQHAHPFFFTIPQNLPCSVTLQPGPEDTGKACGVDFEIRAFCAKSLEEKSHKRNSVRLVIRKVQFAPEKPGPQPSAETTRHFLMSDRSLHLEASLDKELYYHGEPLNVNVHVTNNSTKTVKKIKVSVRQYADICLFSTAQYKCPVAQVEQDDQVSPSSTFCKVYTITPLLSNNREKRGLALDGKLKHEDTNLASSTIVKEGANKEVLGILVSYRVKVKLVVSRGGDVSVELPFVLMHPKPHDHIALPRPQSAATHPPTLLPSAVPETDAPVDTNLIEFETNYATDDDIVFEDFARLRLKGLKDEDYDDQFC

With “MCP1: natural ligand for the CCR2 receptor” the “ligand induced RET signal of CCR2 with Rluc-beta-arrestin-2” value was “activated this receptor as was observed in an increase of the respective RET signal with beta-arrestin-2”.
